B1: Azoarcus group I ribozyme (parent)
chain: GUGCCUUGCGCCGGGAAACCACGCAAGGGAUGGUGUCAAAUUCGGCGAAACCUAAGCGCCCGCCCGGGCGUAUGGCAACGCCGAGCCAAGCUUCGGCGCCUGCGCCGAUGAAGGUGUAGAGACUAGACGGCACCCACCUAAGGCAAACGCUAUGGUGAAGGCAUAGUCCAGGGAGUGGCGAAAGUCACACAAACCGG

This note sets out measurements from the RNAGym collection of RNA variant scans (doi:10.1093/molbev/msab373).

Variants of B1 are the subject of this series. The experiment in a line: reverse-splicing fitness (ratio to wild type); higher = more active; in vitro selection; Mg2+ level not given. The gist of the method: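 An in vitro group I ribozyme library with randomized positions was T7-transcribed and gel-purified. In triplicate, 10 pmol RNA in EPPS pH 7.5 was reacted with 50 pmoles of a 30-nt RNA substrate for 1 h at 37 °C across several added MgCl2 levels (1–48 mM), then stopped with EDTA. Products were reverse transcribed from a substrate-complementary primer, PCR-amplified and sequenced (HiSeq 4000). Fitness is a variant's read proportion after selection over that before, normalised to wild type.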
With GUGCCUUGCGCCGGGAAACCACGCAAGGGAUGGUGUCAAAUUCGGCGAAACCUAAGCGCCCGCCCGGGCGUAUGGCAACGCUGAGCCAAGCUUCGGCGCCUGCGCCGAUGGAGGUGUAGAGACUAGACGGCACCCACCUAAGGCGAACGCUAUGGUGAAGGCAUAGUCUAGGGAGAGGCGAAAGUCACACAAACCGG [C82U A111G A145G C169U U176A], the reverse-splicing fitness worked out at 0.0117.

Regarding GUGCCUUGCGCCGGGAAACCACGCAAGGGAUGGUGUCAAAUUCGGCGAAACCUAAGCGCCCGCCCGGGCGUAUGGCAACGCCGAGCCAAGCUUCGGCGCCUGCGCCGAUGUAGGUGUAGAGACUAGACGGCACCCACCUAAGGCUAACGGUAUGGUGAAGGCAUAGUCUAGGGAGUGGCGAAAGUCACACAAACCGG [A111U A145U C150G C169U], the reverse-splicing fitness is 0.0168.

As for GUGCCUUGCGCCGGGAAACCACGCAAGGGAUGGUGUCAAAUUCGGCGAAACCUAAGCGCCCGCCCGGGCGUAUGGCAACGCUGAGCCAAGCUUCGGCGCCUGCGCCGAUGGAGGUGUAGAGACUAGACGGCACCCACCUAAGGCCAACGUUAUGGUGAAGGCAUAGUCCAGGGAGAGGCGAAAGUCACACAAACCGG [C82U A111G A145C C150U U176A], the reverse-splicing fitness came out at 0.0454.

As to GUGCCUUGCGCCGGGAAACCACGCAAGGGAUGGUGUCAAAUUCGGCGAAACCUAAGCGCCCGCCCGGGCGUAUGGCAACGCAGAGCCAAGCUUCGGCGCCUGCGCCGAUGCAGGUGUAGAGACUAGACGGCACCCACCUAAGGCUAACGUUAUGGUGAAGGCAUAGUCCAGGGAGUGGCGAAAGUCACACAAACCGG [C82A A111C A145U C150U], the reverse-splicing fitness was determined as 0.135.

For GUGCCUUGCGCCGGGAAACCACGCAAGGGAUGGUGUCAAAUUCGGCGAAACCUAAGCGCCCGCCCGGGCGUAUGGCAACGCGGAGCCAAGCUUCGGCGCCUGCGCCGAUGCAGGUGUAGGGACUAGACGGCACCCACCUAAGGCAAACGGUAUGGUGAAGGCAUAGUCAAGGGAGCGGCGAAAGUCACACAAACCGG [C82G A111C A120G C150G C169A U176C], the reverse-splicing fitness was determined as 0.0102.

For GUGCCUUGCGCCGGGAAACCACGCAAGGGAUGGUGUCAAAUUCGGCGAAACCUAAGCGCCCGCCCGGGCGUAUGGCAACGCAGAGCCAAGCUUCGGCGCCUGCGCCGAUGCAGGUGUAGGGACUAGACGGCACCCACCUAAGGCCAACGGUAUGGUGAAGGCAUAGUCCAGGGAGAGGCGAAAGUCACACAAACCGG [C82A A111C A120G A145C C150G U176A], the reverse-splicing fitness was 0.00683.

Take GUGCCUUGCGCCGGGAAACCACGCAAGGGAUGGUGUCAAAUUCGGCGAAACCUAAGCGCCCGCCCGGGCGUAUGGCAACGCCGAGCCAAGCUUCGGCGCCUGCGCCGAUGGAGGUGUAGGGACUAGACGGCACCCACCUAAGGCCAACGAUAUGGUGAAGGCAUAGUCUAGGGAGAGGCGAAAGUCACACAAACCGG [A111G A120G A145C C150A C169U U176A]: the reverse-splicing fitness was 0.0233.

With GUGCCUUGCGCCGGGAAACCACGCAAGGGAUGGUGUCAAAUUCGGCGAAACCUAAGCGCCCGCCCGGGCGUAUGGCAACGCGGAGCCAAGCUUCGGCGCCUGCGCCGAUGAAGGUGUAGAGACUAGACGGCACCCACCUAAGGCAAACGCUAUGGUGAAGGCAUAGUCAAGGGAGCGGCGAAAGUCACACAAACCGG [C82G C169A U176C], the reverse-splicing fitness came out at 0.0165.

With GUGCCUUGCGCCGGGAAACCACGCAAGGGAUGGUGUCAAAUUCGGCGAAACCUAAGCGCCCGCCCGGGCGUAUGGCAACGCUGAGCCAAGCUUCGGCGCCUGCGCCGAUGUAGGUGUAGAGACUAGACGGCACCCACCUAAGGCAAACGGUAUGGUGAAGGCAUAGUCGAGGGAGCGGCGAAAGUCACACAAACCGG [C82U A111U C150G C169G U176C], the reverse-splicing fitness came to 0.00452.

Take GUGCCUUGCGCCGGGAAACCACGCAAGGGAUGGUGUCAAAUUCGGCGAAACCUAAGCGCCCGCCCGGGCGUAUGGCAACGCAGAGCCAAGCUUCGGCGCCUGCGCCGAUGUAGGUGUAGGGACUAGACGGCACCCACCUAAGGCCAACGAUAUGGUGAAGGCAUAGUCGAGGGAGAGGCGAAAGUCACACAAACCGG [C82A A111U A120G A145C C150A C169G U176A]: the reverse-splicing fitness worked out at 0.0253.

Turning to GUGCCUUGCGCCGGGAAACCACGCAAGGGAUGGUGUCAAAUUCGGCGAAACCUAAGCGCCCGCCCGGGCGUAUGGCAACGCUGAGCCAAGCUUCGGCGCCUGCGCCGAUGAAGGUGUAGUGACUAGACGGCACCCACCUAAGGCCAACGAUAUGGUGAAGGCAUAGUCUAGGGAGCGGCGAAAGUCACACAAACCGG [C82U A120U A145C C150A C169U U176C], the reverse-splicing fitness is 0.00195.

As to GUGCCUUGCGCCGGGAAACCACGCAAGGGAUGGUGUCAAAUUCGGCGAAACCUAAGCGCCCGCCCGGGCGUAUGGCAACGCGGAGCCAAGCUUCGGCGCCUGCGCCGAUGAAGGUGUAGAGACUAGACGGCACCCACCUAAGGCCAACGCUAUGGUGAAGGCAUAGUCAAGGGAGAGGCGAAAGUCACACAAACCGG [C82G A145C C169A U176A], the reverse-splicing fitness worked out at 0.0121.

Turning to GUGCCUUGCGCCGGGAAACCACGCAAGGGAUGGUGUCAAAUUCGGCGAAACCUAAGCGCCCGCCCGGGCGUAUGGCAACGCCGAGCCAAGCUUCGGCGCCUGCGCCGAUGCAGGUGUAGAGACUAGACGGCACCCACCUAAGGCGAACGUUAUGGUGAAGGCAUAGUCAAGGGAGGGGCGAAAGUCACACAAACCGG [A111C A145G C150U C169A U176G], the reverse-splicing fitness turned out to be 0.00725.

Consider GUGCCUUGCGCCGGGAAACCACGCAAGGGAUGGUGUCAAAUUCGGCGAAACCUAAGCGCCCGCCCGGGCGUAUGGCAACGCAGAGCCAAGCUUCGGCGCCUGCGCCGAUGGAGGUGUAGCGACUAGACGGCACCCACCUAAGGCUAACGUUAUGGUGAAGGCAUAGUCUAGGGAGGGGCGAAAGUCACACAAACCGG [C82A A111G A120C A145U C150U C169U U176G], for which the reverse-splicing fitness turned out to be 0.00546.

GUGCCUUGCGCCGGGAAACCACGCAAGGGAUGGUGUCAAAUUCGGCGAAACCUAAGCGCCCGCCCGGGCGUAUGGCAACGCUGAGCCAAGCUUCGGCGCCUGCGCCGAUGGAGGUGUAGCGACUAGACGGCACCCACCUAAGGCGAACGGUAUGGUGAAGGCAUAGUCGAGGGAGCGGCGAAAGUCACACAAACCGG [C82U A111G A120C A145G C150G C169G U176C]: the reverse-splicing fitness was 0.00625.
